The values that follow come from article PMC5659210, “Extending the biocatalytic scope of regiocomplementary flavin-dependent halogenase enzymes” (Chemical Science, 2015).

Holding throughout (assay): Michaelis-Menten chlorination assay, HPLC, Fre-coupled
Common to all, as to assay type: biochemical, Pseudomonas fluorescens
Conditions in all cases: Fre in excess, 30 °C

Substrate in data set [1]: Nc1ccccc1C(=O)O
The text has this:
(§1) Michaelis-Menten chlorination assay, HPLC, Fre-coupled on PrnA

Substrate in data set [2]: Nc1ccccc1C(=O)C[C@H](N)C(=O)O
From the text: as §1

Substrate in data set [3]: N[C@@H](Cc1c[nH]c2ccccc12)C(=O)O
From the text: as §1

Substrate in data set [4]: NC(=O)c1ccccc1N
From the text: as §1

B1: PrnA (Pseudomonas fluorescens) (protein)
chain: MNKPIKNIVIVGGGTAGWMAASYLVRALQQQANITLIESAAIPRIGVGEATIPSLQKVFFDFLGIPEREWMPQVNGAFKAAIKFVNWRKSPDPSRDDHFYHLFGNVPNCDGVPLTHYWLRKREQGFQQPMEYACYPQPGALDGKLAPCLSDGTRQMSHAWHFDAHLVADFLKRWAVERGVNRVVDEVVDVRLNNRGYISNLLTKEGRTLEADLFIDCSGMRGLLINQALKEPFIDMSDYLLCDSAVASAVPNDDARDGVEPYTSSIAMNSGWTWKIPMLGRFGSGYVFSSHFTSRDQATADFLKLWGLSDNQPLNQIKFRVGRNKRAWVNNCVSIGLSSCFLEPLESTGIYFIYAALYQLVKHFPDTSFDPRLSDAFNAEIVHMFDDCRDFVQAHYFTTSRDDTPFWLANRHDLRLSDAIKEKVQRYKAGLPLTTTSFDDSTYYETFDYEFKNFWLNGNYYCIFAGLGMLPDRSLPLLQHRPESIEKAEAMFASIRREAERLRTSLPTNYDYLRSLRDGDAGLSRGQRGPKLAAQESL
notes: full-length, pET28a (NdeI/NotI), expressed in E. coli Arctic Express, HisTrap purified
In the case of B1, the Michaelis constant (Km) (commonly the concentration of substrate that gives half-maximal velocity) was found to be 3161 ± 986 µM in data set [1], 19.0 ± 2.2 µM in data set [2], 0.7 ± 0.1 µM in data set [3] and 3267 ± 491 µM in data set [4]. For the same protein, the kcat (as a rule, the maximal rate divided by the concentration of active sites) in data set [1] stood at 0.0085 ± 0.00117 s⁻¹; in data set [2], 0.0617 ± 0.00167 s⁻¹; in data set [3], 0.0183 ± 0.000833 s⁻¹; in data set [4], 0.035 ± 0.00167 s⁻¹. Also, the specificity constant (kcat/Km) (usually the second-order rate constant that governs catalysis at low substrate concentration) in data set [1] was determined as 2.67 ± 0.833 M⁻¹ s⁻¹; in data set [2] it was 3330 ± 167 M⁻¹ s⁻¹; in data set [3] it was 28300 ± 3330 M⁻¹ s⁻¹; in data set [4], 11.7 ± 1.67 M⁻¹ s⁻¹.
